Assay results as given in article PMC10618235.
Read-outs that look alike come from different tables or passages of the source.

How the values were obtained:
[1] = molecular target: FBXL6 (F-Box and Leucine Rich Repeat Protein 6) (UniProt Q8N531); assay: co-IP with anti-Flag IgG, blot; conditions: reference: wild-type TKT; sites T287

For “TKT (transketolase) (from UniProt P29401) TKT T287A”, the “binding against the reference” value [1] was “lost”.

With TKT (transketolase): K16A the enzymatic_activity (ubiquitination at K16) was “abolishes”, the localisation_or_trafficking (ubiquitination at K16) was “changes” and the other (ubiquitination at K16) was “decreases”.

In the case of TKT (transketolase): K319A, the enzymatic_activity (ubiquitination at K319) is reported as “abolishes”, the localisation_or_trafficking (ubiquitination at K319) is reported as “changes” and the other (ubiquitination at K319) is reported as “decreases”.

In the case of TKT (transketolase): T287A, the enzymatic_activity (phosphorylation at T287) is reported as “decreases”, the localisation_or_trafficking (phosphorylation at T287) is reported as “changes” and the other (phosphorylation at T287) is reported as “decreases”.

For “TKT (transketolase): VRK2 inhibition (IC261, 5 μM) or siVRK2”, the other (phosphorylation at T287) was “decreases”.
